{"source": "paper PMC6401464", "about": "(Journal of Virology, 2019)", "binders": {"B1": {"name": "GI.1 P domain (Norwalk virus) (domain or fragment)", "chain": "EQKTRPFTLPNLPLSSLSNSRAPLPISSMGISPDNVQSVQFQNGRCTLDGRLVGTTPVSLSHVAKIRGTSNGTVINLTELDGTPFHPFEGPAPIGFPDLGGCDWHINMTQFGHSSQTQYDVDTTPDTFVPHLGSIQANGIGSGNYVGVLSWISPPSHPSGSQVDLWKIPNYGSSITEATHLAPSVYPPGFGEVLVFFMSKMPGPGAYNLPCLLPQEYISHLASEQAPTVGEAALLHYVDPDTGRNLGEFKAYPDGFLTCVPNGASSGPQQLPINGVFVFVSWVSRFYQLKPVGT", "notes": "also called GI.1 capsid-protruding (P) domain; GI P domain"}, "B2": {"name": "Nano-94 (VHH)", "VHH": "QVQLQESGGGLVQAGGSLRLSCAASGRMFSINSMGWYRQAPGKERELVATISEAGTTTYADSVRGRFTIARDNAKNTVYLQMNSLNPEDTAVYYCNAYIQLDSTIWFRAYWGQGTQVTVSS", "notes": "also called Nanobody 94"}, "B3": {"name": "Nano-62 (VHH)", "VHH": "QVQLQESGGGLVMTGGSLRLSCAVSGRTIDVSVMAWFRQAPGKEREFVSGMRWSGMTTYSADSVKDRFTISRDKTKNTVYLQMNSLKPEDTAVYYCAARSRFIVGVPQARDLYDYWGQGTQVTVSS", "notes": "also called Nanobody 62"}, "B4": {"name": "Nano-7 (VHH)", "VHH": "QVQLQESGGGLVQAGGSLRLSCAVSGRTFSNYYSGWFRQAPGKEREFLASIRWSDSTTNYADSVKGRFTISRDTAKNTVYLQMNSLKLEDTAVYHCAARRLATYDYWGQGTQVTVSS", "notes": "also called Nanobody 7"}}, "key": {"[1]": {"target": "the molecule itself", "test": "crystal structure"}, "[2]": {"target": "T1, GI.1 P domain (Norwalk virus) (Norwalk virus (human norovirus GI.1), UniProt Q83884)", "T1 construct": "also called GI.1 capsid-protruding (P) domain; GI P domain", "test": "ELISA; direct ELISA; P domain or VLPs coated on MaxiSorp plates, serially diluted Nanobodies (1:1 in PBS, starting at 100 μg/ml) for 1 h at 37°C, detected with HRP-conjugated anti-polyhistidine antibody; cutoff OD490 0.15", "conditions": "both partners purified"}, "[3]": {"target": "T1, GI.1 P domain (Norwalk virus)", "test": "ITC; Nano-94 (150 μM) injected in 2 μl aliquots into GI.1 P domain (15 μM), PBS, 25°C, one-site binding model", "conditions": "both partners purified"}, "[4]": {"target": "T1, GI.1 P domain (Norwalk virus)", "test": "ITC; Nano-62 (150 μM) injected in 2 μl aliquots into GI.1 P domain (15 μM), PBS, 30°C, one-site binding model", "conditions": "both partners purified"}, "[5]": {"target": "T1, GI.1 P domain (Norwalk virus)", "test": "ITC; Nano-7 (150 μM) injected in 0.5 μl aliquots into GI.1 P domain (15 μM), PBS, 35°C, one-site binding model", "conditions": "both partners purified"}}}
{"binder": "B1", "values": [{"measurement": "binding result", "setting": "[1]", "value": "binds"}]}
{"binder": "B2", "values": [{"measurement": "detection level (ELISA, cutoff OD490 0.15)", "setting": "[2]", "value": 0.1, "unit": "µg/mL"}, {"measurement": "Kd", "setting": "[3]", "value": 43.4, "unit": "nM"}, {"measurement": "stoichiometry N", "setting": "[3]", "value": "~1"}]}
{"binder": "B3", "values": [{"measurement": "Kd", "setting": "[4]", "value": 4.58, "unit": "nM"}, {"measurement": "stoichiometry N", "setting": "[4]", "value": "~1"}, {"measurement": "detection level (ELISA, cutoff OD490 0.15)", "setting": "[2]", "value": 0.1, "unit": "µg/mL"}]}
{"binder": "B4", "values": [{"measurement": "Kd", "setting": "[5]", "value": 0.163, "unit": "nM"}, {"measurement": "stoichiometry N", "setting": "[5]", "value": "~1"}, {"measurement": "detection level (ELISA, cutoff OD490 0.15)", "setting": "[2]", "value": 0.2, "unit": "µg/mL"}]}
